For 2 proteins, Km results are on record in article PMC5792912.

Usually Km stands for the concentration of substrate that gives half-maximal velocity.

Holding throughout (type): in vitro ADME
Substrate in data set [1]: Cc1cc(=O)oc2c(O)c(O)ccc12
As to the kind of experiment: Methylation kinetics in pooled human liver cytosol (HLC). Conditions: other: HLC 0.5 mg/ml, substrate 0.1–40 µM, 5 min; best-fit value ± s.e.; pH 7.4. The procedure:
(§1) Reaction mixtures were pre-incubated at 37°C for 5 min and initiated by the addition of SAM to a final concentration of 0.4 mM. The samples were incubated for a certain period of time and the reaction was terminated by the addition of 200 µl ice-cold acetonitrile and then centrifuged at 20 000g, 4°C, for 20 min. Control incubations were performed either without human liver cytosol, or without SAM or without substrate. The supernatants were subjected to ultra-fast liquid chromatography (UFLC) coupled with a diode array detector (DAD) and an electrospray ionization (ESI) mass spectrometer (MS) analyzer.
(§2) 7,8-DHCs and their methylated conjugates were analysed by a UFLC spectrometry system (Shimadzu, Kyoto, Japan), equipped with two LC-20AD pumps, a DGU-20A3 vacuum degasser, a SIL-20ACHT auto-sampler, a CTO-20AC column oven, an SPD-M 20A DAD, a CBM-20A communications bus module, a mass detector (2010EV) with an ESI interface and a computer equipped with UFLC-MS SOLUTION v. 3.41 software. A Shimadzu ODS (75.0 × 2.0 mm, 3 µm) analytical column was used to separate 7,8-DHCs and their methylated conjugates. Column temperature was kept at 40°C. […] The methylation samples were stable over 72 h at 4°C. 7,8-DHC methylation was quantified by the standard curves of the methylated conjugates at the detector wavelength of 325 nm, which were linear from 0.01 to 10 µM (the correlation coefficient was 0.999).
(§3) For estimating kinetic parameters, 7,8-DHCs (0.1–40 µM) were incubated with pooled HLC and S-COMT. 7,8-DHCs (0.1–40 µM) were incubated with HLC or S-COMT for 5 min, using a microsomal protein concentration of 0.5 mg ml^−1 or 0.002 mg ml^−1 for HLC and S-COMT, respectively. Kinetic constants for 7,8-DHCs methylation by HLC and S-COMT were obtained by fitting the Michaelis–Menten kinetics equation (3.1) to experimental data.
(§4) For the Michaelis–Menten kinetic model, 3.1 v=Vmax×[S]/Km+[S], where v is the rate of reaction, [S] is the substrate concentration, Vmax is the maximum velocity estimate and Km is the apparent affinity constant.
(§5) All incubations were performed in duplicate. Kinetic constants were obtained using GraphPad PRISM 6 (GraphPad Software, Inc. La Jolla, CA) software.

Substrate in data set [2]: O=C(O)Cc1cc(=O)oc2c(O)c(O)ccc12
Described as above. As to conditions: other: HLC 0.5 mg/ml, substrate 0.1–40 µM, 5 min; best-fit value ± s.e.; pH 7.4. As for the experimental part:
as §1, §2, §3, §4, §5

Substrate in data set [3]: O=c1cc(-c2ccccc2)c2ccc(O)c(O)c2o1
The data set is described as above. As to conditions: other: HLC 0.5 mg/ml, substrate 0.1–40 µM, 5 min; best-fit value ± s.e.; pH 7.4. As for the experimental part: as §1, §2, §3, §4, §5

Substrate in data set [4]: O=c1ccc2ccc(O)c(O)c2o1
Described as above. As to conditions: other: HLC 0.5 mg/ml, substrate 0.1–40 µM, 5 min; best-fit value ± s.e.; pH 7.4. The procedure:
as §1, §2, §3, §4, §5

Substrate in data set [5]: Cc1cc(=O)oc2c(O)c(O)ccc12
As to the kind of experiment: Methylation kinetics with recombinant human soluble COMT. Conditions: other: S-COMT 0.002 mg/ml, substrate 0.1–40 µM, 5 min; best-fit value ± s.e.; pH 7.4. As for the experimental part:
as §1, §2, §3, §4, §5

Substrate in data set [6]: O=C(O)Cc1cc(=O)oc2c(O)c(O)ccc12
The description is as above. Conditions: other: S-COMT 0.002 mg/ml, substrate 0.1–40 µM, 5 min; best-fit value ± s.e.; pH 7.4. The procedure: as §1, §2, §3, §4, §5

Substrate in data set [7]: O=c1cc(-c2ccccc2)c2ccc(O)c(O)c2o1
The description is as above. Conditions: other: S-COMT 0.002 mg/ml, substrate 0.1–40 µM, 5 min; best-fit value ± s.e.; pH 7.4. As for the experimental part: as §1, §2, §3, §4, §5

Substrate in data set [8]: O=c1ccc2ccc(O)c(O)c2o1
Described as above. As to conditions: other: S-COMT 0.002 mg/ml, substrate 0.1–40 µM, 5 min; best-fit value ± s.e.; pH 7.4. The procedure: as §1, §2, §3, §4, §5

B1: COMT in HLC (Homo sapiens) (protein)
chain: MGDTKEQRILNHVLQHAEPGNAQSVLEAIDTYCEQKEWAMNVGDKKGKIVDAVIQEHQPSVLLELGAYCGYSAVRMARLLSPGARLITIEINPDCAAITQRMVDFAGVKDKVTLVVGASQDIIPQLKKKYDVDTLDMVFLDHWKDRYLPDTLLLEECGLLRKGTVLLADNVICPGAPDFLAHVRGSSCFECTHYQSFLEYREVVDGLEKAIYKGPGSEAGP
notes: Pooled human liver cytosol (HLC) from seven male donors; tissue Research Institute for Liver Diseases (Shanghai, China) Lot; QROX; host or cells: pooled human liver cytosol, seven male donors
For the protein B1, the Michaelis-Menten constant (Km) turned out to be 0.20 ± 0.029 µM in data set [1], 7.52 ± 0.64 µM in data set [2], 0.089 ± 0.015 µM in data set [3] and 0.21 ± 0.036 µM in data set [4].

B2: recombinant human soluble COMT (S-COMT) (Homo sapiens) (protein)
chain: B1 chain
notes: made in house
For B2, the Km is 1.07 ± 0.10 µM in data set [5], 7.93 ± 1.31 µM in data set [6], 0.22 ± 0.034 µM in data set [7] and 0.48 ± 0.071 µM in data set [8].
